Test results as given in paper PMC4147313.
Blank lines part the entries; values can stand above or below the molecule they belong to.

Key:
[1] = molecular target: formyl-peptide receptor (FPR) (human (endogenous in SKOV-3)) (UniProt P21462)
[2] = molecular target: formyl-peptide receptor (FPR) (human (endogenous in SKOV-3)) (UniProt P21462); remark: listed apart in the source
[3] = molecular target: formyl-peptide receptors (FPRs) of CHO-K1 cells (Chinese hamster (endogenous in CHO-K1))
[4] = molecular target: formyl-peptide receptors (FPRs) of CHO-K1 cells (Chinese hamster (endogenous in CHO-K1)); remark: listed apart in the source

UniProt P21462, sequence (P21462 whole entry): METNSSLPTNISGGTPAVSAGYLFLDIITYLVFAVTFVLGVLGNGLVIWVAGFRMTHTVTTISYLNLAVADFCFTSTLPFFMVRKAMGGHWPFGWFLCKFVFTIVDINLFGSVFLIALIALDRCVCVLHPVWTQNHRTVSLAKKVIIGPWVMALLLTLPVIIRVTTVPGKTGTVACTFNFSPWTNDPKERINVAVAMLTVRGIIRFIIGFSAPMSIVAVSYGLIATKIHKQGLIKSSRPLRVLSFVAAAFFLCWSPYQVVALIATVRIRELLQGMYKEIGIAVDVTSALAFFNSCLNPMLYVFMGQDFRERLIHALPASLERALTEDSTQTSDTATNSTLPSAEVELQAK

Molecule: urokinase receptor (uPAR) (from UniProt Q03405 23-305)
reduction of migration of SKOV-3 cells toward 10% FBS by RERF peptide, 10 fM to 10 pM (35% at 10 fM, 60% at 10 pM) (% reduction of cell migration) [1]: 60
reduction by 10 nM RERF peptide of the Cell Index of SKOV-3 cells invading matrigel toward serum (xCELLigence, 18 hrs); anti-uPAR84-95 polyclonal antibody reduced it by 50% (% reduction of Cell Index) [2]: 86

Molecule: truncated uPAR lacking the D1 domain and exposing the 84-95 sequence (uPARD2D3) on CHO-K1 cells (domain or fragment)
reduction by 10 nM RERF peptide of the Cell Index of CHO-K1/D2D3 cells invading matrigel toward serum (xCELLigence, after 18 hrs) (% reduction of Cell Index) [3]: 83

Other lines, results leading:

reduction by 10 nM RERF peptide of the Cell Index of CHO-K1/D1D2D3 cells invading matrigel toward serum (xCELLigence, after 18 hrs) (% reduction of Cell Index) [3]: 75
Molecule: wild type, full length uPAR (D1D2D3) on CHO-K1 cells (from UniProt Q03405 23-305) (receptor)

migration of wild type CHO-K1 cells toward 10 nM SRSRY (Boyden chamber, 4 hrs, 37°C), percent of basal (% of the basal cell migration) [4]: 177
Molecule: SRSRY [SRSRY peptide (uPAR 88-92, Ser-Arg-Ser-Arg-Tyr)]
